From PMC11618752 (2024)

Molecular target: XPO1 protein, recombinant (UniProt O14980 1-1071)
Assay: ITC

XPO1 protein, recombinant, sequence (O14980 whole entry): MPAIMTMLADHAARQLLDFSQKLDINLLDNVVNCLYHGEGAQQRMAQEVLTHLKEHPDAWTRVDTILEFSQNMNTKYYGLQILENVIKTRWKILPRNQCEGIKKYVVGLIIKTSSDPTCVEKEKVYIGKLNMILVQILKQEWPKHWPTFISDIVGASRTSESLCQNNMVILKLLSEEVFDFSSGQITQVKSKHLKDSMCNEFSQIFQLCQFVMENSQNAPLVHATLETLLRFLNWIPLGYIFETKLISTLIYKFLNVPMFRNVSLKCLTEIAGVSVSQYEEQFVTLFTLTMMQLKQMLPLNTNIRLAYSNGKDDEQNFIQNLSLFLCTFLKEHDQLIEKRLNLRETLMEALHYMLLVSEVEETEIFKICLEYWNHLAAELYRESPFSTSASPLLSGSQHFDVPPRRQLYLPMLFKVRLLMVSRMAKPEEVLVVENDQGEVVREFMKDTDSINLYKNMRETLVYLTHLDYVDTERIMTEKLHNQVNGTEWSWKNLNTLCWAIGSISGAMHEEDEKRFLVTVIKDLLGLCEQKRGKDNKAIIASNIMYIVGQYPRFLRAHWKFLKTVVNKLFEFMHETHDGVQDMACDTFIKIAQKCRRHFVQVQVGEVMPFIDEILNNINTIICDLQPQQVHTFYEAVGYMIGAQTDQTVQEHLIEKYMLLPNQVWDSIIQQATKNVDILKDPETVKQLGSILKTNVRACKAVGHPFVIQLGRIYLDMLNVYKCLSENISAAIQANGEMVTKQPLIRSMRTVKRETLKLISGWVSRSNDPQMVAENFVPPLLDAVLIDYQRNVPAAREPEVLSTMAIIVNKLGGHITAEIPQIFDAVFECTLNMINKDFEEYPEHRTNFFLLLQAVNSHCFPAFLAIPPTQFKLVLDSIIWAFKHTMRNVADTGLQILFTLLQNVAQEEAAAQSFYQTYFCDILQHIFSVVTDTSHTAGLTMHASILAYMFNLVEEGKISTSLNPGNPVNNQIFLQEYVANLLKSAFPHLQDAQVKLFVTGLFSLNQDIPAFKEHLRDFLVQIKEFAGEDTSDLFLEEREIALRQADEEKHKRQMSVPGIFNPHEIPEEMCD

Kd: 45 µM
B1: NES peptide (173–182 aa of TIRR) (peptide)
peptide: LLFALKVLNM
